Assay results as given in patent US20260070976A1 (Alector, published 2026).
Where a chain is given by its changes, count along the chain named. Blank lines part the entries; values can stand above or below the binder they belong to.

Legend:
[1] = molecular target: T1, cell surface PILRA on human monocytes (human, UniProt Q9UKJ1 20-303); experiment: cell-based or functional assay
recombinant human PILRB [2] = molecular target: T2, recombinant human PILRB (human, UniProt Q9UKJ0 20-191); experiment: SPR, Carterra LSA, steady-state fit
Experimental: (§1) Binding kinetics of human anti-PILRA-IgG4 antibodies were evaluated by surface plasmon resonance (SPR) using a Carterra LSA instrument (Carterra, Salt Lake City, UT). Antibodies were immobilized in duplicate arrays onto an HC30M sensor chip (Carterra) by amine coupling according to the manufacturer's protocol. After priming the immobilized antibodies with HBS-EP+ (Teknova, Hollister, CA, #8022) running buffer with 0.5 mg/mL BSA (MP Biomedicals LLC, #820451), the immobilized antibodies were tested for their ability to bind to recombinant human PILRA (SEQ ID NO:1) and cynomolgus PILRA (SEQ ID NO:120) and to human PILRB (SEQ ID NO:105) and cynomolgus PILRB (SEQ ID NO:121).
(§2) For binding kinetics analysis, human and cynomolgus PILRA and PILRB analytes were diluted in running buffer to 440 to 470 nM, and diluted 3-fold serially five times, to 1.8 to 1.9 nM, and injected for five minutes over the entire chip using the single channel flow cell to measure association of binding to the immobilized antibodies. Dissociation of the analytes was measured for five minutes, followed by regeneration of the chip with two 30-second injections of 10 mM glycine pH 2.0.
For the human PILRB interactions, the binding was too weak and heterogenous for kinetic constants to be calculated in this assay. Therefore, steady-state affinities were estimated based on the binding level of each analyte concentration at the end of the injections.

recombinant human PILRA [3] = molecular target: T3, recombinant human PILRA (human, UniProt Q9UKJ1 20-197); experiment: SPR, Biacore T200, antibody captured by anti-Fab
Experimental: (§3) A subset of these antibodies was further evaluated using the Biacore T200 (Cytiva). Anti-PILRA antibodies were diluted to 10 μg/mL and captured using an anti-Fab (Cytiva, #28958325) surface on a CM4 chip, that was prepared by amine coupling according to the manufacturer's protocol. Human PILRA and cynomolgus PILRB were diluted in running buffer to 130 nM, and diluted 4-fold serially, twice, to 8 nM. Human PILRB was similarly diluted from 260 nM to 16 nM. These analytes were injected and allowed 2 minutes of association, followed by dissociation for 5 minutes.
(§4) Data were analyzed using Biacore evaluation software to generate kinetic constants. The equilibrium dissociation constants (KD) were calculated from the fitted association and dissociation rate constants (k-on and k-off) for each of the anti-PILRA antibodies. These Kn values are indicated with asterisks in Table 8 below.

recombinant human PILRB [4] = molecular target: T2, recombinant human PILRB; experiment: SPR, Biacore T200, antibody captured by anti-Fab
Experimental: as §3, §4

recombinant human PILRA [5] = molecular target: T3, recombinant human PILRA; experiment: SPR, Carterra LSA, antibody amine-coupled, kinetic fit
Experimental: as §1, §2

[6] = molecular target: T4, recombinant cynomolgus PILRA (SEQ ID NO:120) (cynomolgus monkey); experiment: as above
T4 construct: also called cyno PILRA
Experimental: as §1, §2

[7] = molecular target: T5, human PILRA G78 on HEK293F cells (human, UniProt Q9UKJ1 20-303); experiment: FACS on HEK293F cells, binding on human PILRA (hA) over human PILRB (hB)
T5 construct: also called hA; G78 OE
Experimental: (§5) Conditioned media samples containing the tested anti-PILRA antibodies were assessed for binding to HEK293F cells overexpressing human PILRA (hA), human PILRB (hB), and cynomolgus PILRA (cA) by FACS. The conditioned media containing the tested antibodies were incubated with the cells for 30 min at 4° C., washed twice, and then detected with goat anti-human IgG secondary antibody (Alexa Fluor 647) at 1:1000 dilution. The cells were analyzed by flow cytometry on FACS Canto II, and for all cell lines, the reported MFI values were calculated for each conditioned media. These antibodies were evaluated for nonspecific binding using a baculovirus particle (BVP) assay (Jain T., Sun T., Durand S., Hall A., Houston N. R., Nett J. H., Sharkey B., Bobrowicz B., Caffry L, Yu Y., et al. Biophysical properties of the clinical-stage antibody landscape. Proc. Natl. Acad. Sci. USA. 2017; 114:944-949. Doi: 10.1073/pnas.1616408114.). The BVP scores are listed in Table 9, and the higher the score the more nonspecific binding that occurred.

[8] = molecular target: T6, cynomolgus PILRA on HEK293F cells (cynomolgus monkey, UniProt A0A7N9CRU1 20-292); experiment: cA Kd of Table 9; method not stated (Example 8: HEK293F overexpressing cells, FACS)
[9] = molecular target: T5, human PILRA G78 on HEK293F cells; experiment: hA Kd of Table 9; method not stated (Example 8: HEK293F overexpressing cells, FACS)
[10] = molecular target: T7, human PILRB on HEK293F cells (human, UniProt Q9UKJ0 20-227); experiment: hB Kd of Table 9; method not stated (Example 8: HEK293F overexpressing cells, FACS)
T7 construct: also called hB

[11] = molecular target: T6, cynomolgus PILRA on HEK293F cells; experiment: flow cytometry; HEK293F cells overexpressing cynomolgus PILRA, goat anti-human IgG Alexa Fluor 647
[12] = molecular target: T1, cell surface PILRA on human monocytes; experiment: flow cytometry; Alexa Fluor 647-conjugated antibody on human CD14+ monocytes (second donor sample), Fc receptors blocked, 30 min on ice
Experimental: (§6) Anti-human PILRA antibodies X0 (PA-29) and its affinity matured variants were tested for their abilities to bind cell surface PILRA on human and cynomolgus monocytes. CD14+ monocytes were isolated from healthy human donors using a RosetteSep Human Monocyte Enrichment Cocktail kit (StemCell). Cynomolgus white blood cells were collected from cynomolgus whole blood. In both human and cynomolgus samples, the Fc receptor on the tested monocytes was blocked and the monocytes were treated with Alexa Fluor 647-conjugated PILRA antibodies for 30 minutes on ice. A dose response curve of antibodies X0 (PA-29), X1, X2, X7, X11, X12, X13, X14, X16, X18, and X20 was tested for binding to cell surface PILRA in human and cynomolgus monocytes, and antibodies bound to PILRA in a dose response manner. In another sample of human donor monocytes, a dose response curve of antibodies X0 (PA-29), X1, X2, X11, X13, X18, X29 (PA-43), and X34 (A6) was tested for binding to cell surface PILRA in human and cynomolgus monocytes, and antibodies bound to PILRA in a dose response manner.

[13] = molecular target: T5, human PILRA G78 on HEK293F cells; experiment: flow cytometry; HEK293F cells overexpressing human PILRA, goat anti-human IgG Alexa Fluor 647
Experimental: as §5

[14] = molecular target: T1, cell surface PILRA on human monocytes; experiment: flow cytometry; Alexa Fluor 647-conjugated antibody on human CD14+ monocytes, Fc receptors blocked, 30 min on ice
Experimental: as §6

T2 sequence (Q9UKJ0 20-191 limits assumed): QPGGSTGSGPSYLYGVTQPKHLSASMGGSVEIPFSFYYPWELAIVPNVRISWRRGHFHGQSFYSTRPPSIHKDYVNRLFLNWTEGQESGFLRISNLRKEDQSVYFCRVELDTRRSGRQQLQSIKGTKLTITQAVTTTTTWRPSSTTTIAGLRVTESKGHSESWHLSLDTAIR
T1 sequence (Q9UKJ1 20-303): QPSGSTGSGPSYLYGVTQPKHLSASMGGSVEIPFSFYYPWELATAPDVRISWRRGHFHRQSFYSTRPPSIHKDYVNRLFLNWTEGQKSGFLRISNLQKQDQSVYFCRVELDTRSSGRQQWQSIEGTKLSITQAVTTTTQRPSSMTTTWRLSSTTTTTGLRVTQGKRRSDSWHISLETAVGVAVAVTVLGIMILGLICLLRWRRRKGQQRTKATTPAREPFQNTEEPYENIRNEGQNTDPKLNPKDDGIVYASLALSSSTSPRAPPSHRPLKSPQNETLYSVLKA
T6 sequence (A0A7N9CRU1 entry or part of it): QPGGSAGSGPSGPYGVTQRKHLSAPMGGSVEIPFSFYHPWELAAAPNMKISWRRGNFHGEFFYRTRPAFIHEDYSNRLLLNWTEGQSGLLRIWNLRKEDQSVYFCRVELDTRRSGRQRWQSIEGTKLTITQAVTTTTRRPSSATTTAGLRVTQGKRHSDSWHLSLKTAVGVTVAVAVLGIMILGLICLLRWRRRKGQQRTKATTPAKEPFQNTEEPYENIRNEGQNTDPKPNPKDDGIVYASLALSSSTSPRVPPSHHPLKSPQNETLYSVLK
T3 sequence (Q9UKJ1 20-197 limits assumed): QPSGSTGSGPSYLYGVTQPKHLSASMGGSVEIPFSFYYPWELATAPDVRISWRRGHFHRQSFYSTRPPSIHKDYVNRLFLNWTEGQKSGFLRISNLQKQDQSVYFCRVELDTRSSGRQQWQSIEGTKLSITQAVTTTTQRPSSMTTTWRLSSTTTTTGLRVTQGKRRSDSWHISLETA
T5 sequence (Q9UKJ1 20-303 R78G): as the sequence (Q9UKJ1 20-303) above, with R59G counted along it
T4 sequence (chain, as listed by the source limits assumed): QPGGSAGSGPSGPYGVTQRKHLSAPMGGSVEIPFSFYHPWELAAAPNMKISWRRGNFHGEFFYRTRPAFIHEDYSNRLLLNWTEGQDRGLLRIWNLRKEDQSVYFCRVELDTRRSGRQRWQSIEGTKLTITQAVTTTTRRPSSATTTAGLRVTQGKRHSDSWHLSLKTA
T7 sequence (Q9UKJ0 20-227): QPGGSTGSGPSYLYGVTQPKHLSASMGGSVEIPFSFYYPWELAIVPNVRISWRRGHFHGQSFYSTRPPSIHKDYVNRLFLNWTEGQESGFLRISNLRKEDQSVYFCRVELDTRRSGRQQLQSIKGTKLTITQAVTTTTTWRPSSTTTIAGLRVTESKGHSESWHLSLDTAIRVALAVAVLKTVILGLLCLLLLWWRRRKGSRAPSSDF

Hu Mono DR EC50 [1]: 0.1 µg/mL | Kd (recombinant human PILRB [2]): 53 nM | Kd (recombinant human PILRA [3]): 3.1 nM | Kd (recombinant human PILRB [4]): 157 nM | Kd (recombinant human PILRA [5]): 3.5 nM | Kd [6]: 1.5 nM | hA/hB binding ratio on HEK293F [7]: 71.1 | Kd [8]: 8.9 nM | Kd [9]: 0.8 nM | Kd [10]: 216 nM | EC50 (read off the curve) [11]: ~0.6 µg/mL | EC50 (read off the curve) [12]: ~0.1 µg/mL
B1: X2 (antibody, V domains shown)
VH: QVQLVQSGAEVKKPGSSVKVSCKASGYNFLHYDVNWVRQAPGQGLEWMGGIIPIFGTANYAQKFQGRVTITADESTSTAYMELSSLRSEDTAVYYCATAVGAGWFDPWGQGTLVTVSS
VL: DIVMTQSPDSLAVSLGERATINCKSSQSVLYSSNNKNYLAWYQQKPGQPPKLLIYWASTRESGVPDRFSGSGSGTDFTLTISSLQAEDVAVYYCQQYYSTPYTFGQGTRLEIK
notes: conditioned media in the HEK293F assays

Hu Mono DR EC50 [1]: 0.3 µg/mL | Kd (recombinant human PILRB [2]): 80 nM | Kd (recombinant human PILRA [3]): 3.4 nM | Kd (recombinant human PILRB [4]): 142 nM | Kd (recombinant human PILRA [5]): 4.8 nM | Kd [6]: 0.3 nM | hA/hB binding ratio on HEK293F [7]: 79.8 | Kd [8]: 2.3 nM | Kd [9]: 1.6 nM | EC50 (read off the curve) [13]: ~0.3 µg/mL | EC50 (read off the curve) [11]: ~0.5 µg/mL | EC50 (read off the curve) [14]: ~0.2 µg/mL | EC50 (read off the curve) [12]: ~0.1 µg/mL
B2: X11 (antibody, human IgG4, V domains shown)
VH: B1 VH with H31N, A99G
VL: DIVMTQSPDSLAVSLGERATINCKSSQSVYFSENNKNYLAWYQQKPGQPPKLLIYWASTRESGVPDRFSGSGSGTDFTLTISSLQAEDVAVYYCQQYYEEPYTFGQGTRLEIK
notes: as for B1
